Laboratory results as given in patent US20240207464A1.

Experiments:
[1] = target: Protein G (Dynabeads Protein G, Thermo Fisher Scientific) (UniProt P19909); experiment: immunoprecipitation with Dynabeads Protein G after storage in human plasma at 37 C, 14 day point
[2] = target: Protein G (Dynabeads Protein G, Thermo Fisher Scientific) (UniProt P19909); experiment: immunoprecipitation with Dynabeads Protein G after storage in monkey plasma at 37 C, 0 day point
[3] = target: Protein G (Dynabeads Protein G, Thermo Fisher Scientific) (UniProt P19909); experiment: immunoprecipitation with Dynabeads Protein G after storage in mouse plasma at 37 C, 1 day point
[4] = target: Protein G (Dynabeads Protein G, Thermo Fisher Scientific) (UniProt P19909); experiment: immunoprecipitation with Dynabeads Protein G after storage in rat plasma at 37 C, 7 day point
[5] = target: Protein G (Dynabeads Protein G, Thermo Fisher Scientific) (UniProt P19909); experiment: immunoprecipitation with Dynabeads Protein G after storage in mouse plasma at 37 C, 0 day point
[6] = target: Protein G (Dynabeads Protein G, Thermo Fisher Scientific) (UniProt P19909); experiment: immunoprecipitation with Dynabeads Protein G after storage in monkey plasma at 37 C, 1 day point
[7] = target: Protein G (Dynabeads Protein G, Thermo Fisher Scientific) (UniProt P19909); experiment: immunoprecipitation with Dynabeads Protein G after storage in mouse plasma at 37 C, 7 day point
[8] = target: Protein G (Dynabeads Protein G, Thermo Fisher Scientific) (UniProt P19909); experiment: immunoprecipitation with Dynabeads Protein G after storage in rat plasma at 37 C, 0 day point
[9] = target: Protein G (Dynabeads Protein G, Thermo Fisher Scientific) (UniProt P19909); experiment: immunoprecipitation with Dynabeads Protein G after storage in monkey plasma at 37 C, 7 day point
[10] = target: Protein G (Dynabeads Protein G, Thermo Fisher Scientific) (UniProt P19909); experiment: immunoprecipitation with Dynabeads Protein G after storage in human plasma at 37 C, 7 day point
[11] = target: Protein G (Dynabeads Protein G, Thermo Fisher Scientific) (UniProt P19909); experiment: immunoprecipitation with Dynabeads Protein G after storage in human plasma at 37 C, 0 day point; share of radioactivity bound to Protein G
[12] = target: Protein G (Dynabeads Protein G, Thermo Fisher Scientific) (UniProt P19909); experiment: immunoprecipitation with Dynabeads Protein G after storage in rat plasma at 37 C, 1 day point
[13] = target: Protein G (Dynabeads Protein G, Thermo Fisher Scientific) (UniProt P19909); experiment: immunoprecipitation with Dynabeads Protein G after storage in human plasma at 37 C, 1 day point

“radioconjugate (Example 1): conjugate with rituximab by using 225Ac-labeled DOTAGA-DBCO (antibody)” was tested, and the recovery rate (%) by beads [1] was 76.4%, the recovery rate (%) by beads [2] was 92.9% and the recovery rate (%) by beads [3] was 95%. The recovery rate (%) by beads [4] was 90.4%, the recovery rate (%) by beads [5] was 98.1% and the recovery rate (%) by beads [6] was 90.4%. The recovery rate (%) by beads [7] was 93.1%, the recovery rate (%) by beads [8] was 97.4% and the recovery rate (%) by beads [9] was 90.5%. It also gave a recovery rate (%) by beads [10] of 81%, a recovery rate (%) by beads [11] of 95% and a recovery rate (%) by beads [12] of 94.8%. It also gave a recovery rate (%) by beads [13] of 90.5%.
